Sequences and labels used below:
T1: α-fructosyl-valyl-histidyl-leucyl-threonyl-prolyl-glutamyl-glutamyl-lysine (not fully specified)
T1 chain: VHLTPEEK

B1: PnFX-62D/63H/106K/110L/113K/351S (protein)
chain: MAPSRANTSVIVVGGGGTIGSSTALHLVRSGYTPSNVTVLDAYPIPSSQSAGNDLNKIMGVDHRNPVDLQLALEARQMWNEDELFKKFFHNTGRLDCAHGEKDIAKLKSLYQKLVDAGLDATNEWLDSEDEILKRMPLLSRDQIKGWKAIFSKDGGWLAAAKAINAVGEYLRDQGVRFGFYGAGSFKAPLLAEGVCIGVETVDGTRYYADKVVLAAGAWSPTLVELHEQCVSKAWVYGHIQLTPEEAARYKNSPVVYNGDVGFFFEPNEHGVIKVCDEFPGFTRFKMHQPFGAKAPKRISVPRSHAKHPTDTIPDASDVSIRRAIATFMPQFKNKKMFNQAMCWCTDTADSALLICEHPEWKNFVLATGDSGHSFKLLPNIGKHVVELLEGTLADDLAHAWRWRPGSGDALKSRRSAPAKDLADMPGWNHDKPRANL
B2: PnFX-62D/63H/106K/110L/113K/351S-64S (protein)
chain: B1 chain with R64S
B3: NvFX-62D/63H/106K/110L (protein)
chain: MTTPRKETTVLIIGGGGTIGSSTALHLLRAGYTPSNITVLDTYPIPSAQSAGNDLNKIMGIDHRNKVDLQLSLEARDMWRNDALFRPFFHNTGRLDCESSAEGVEKLRRLYQKLVEAGVGLEETHEWLDSEEAILEKAPLLQREEIEGWKAIWSEEGGWLAAAKAINAIGEELQRQGVRFGFGGAGSFKRPLFADDGTTCIGVETVDGTQYHADKVVLAAGAWSPALVDLEEQCCSKAWVYAHMQLTPEEAAVYKGCPVVYHGDVGFFFEPNENGVIKVCDEFPGFTRFKQHQPYGAPAPKPVSVPRSHAKHPTDTYPDASEESIKRAVSTFLPRFKDKPLFNRALCWCTDTADSALLICEHPRWKNFILATGDSGHSFKLLPIIGKHVVELVEGRLADDLAEAWRWRPGQGDARKSIRAAPAKDLADMPGWKHDQDSESR
B4: NvFX-62D/63H/106K/110L-64S (protein)
chain: B3 chain with R64S
B5: NvFX-62D/63H/106K/110L-64T (protein)
chain: B3 chain with R64T
B6: NvFX-62D/63H/106K/110L-64M (protein)
chain: B3 chain with R64M
B7: CFP-DH2 (protein)
chain: MTSNRADTRVIVVGGGGTIGSSTALHLVRSGYAPANITVLDTFPIPSAQSAGHDLNKIMGIDHRNKVNLQMSLEARQMWKEDELFQPFFHNTGRMDCEHTPKGIEKLKKLYQKLHDAGAGLEKTHAWLDNEDAILSKMPLLQRDQIQGWKAIWSQDGGWLAAAKAINAIGQFLKERGVKFGFGGAGSFKQPLFDDEGTTCIGVETADGTKYYADKVVLAAGAWSPTLVDLEDQCCSKAWVYAHIQLTPEEAAKYKGCPVVYHGEFGFFFEPDEFGVIKVCDEFPGFSRFKEHQPYGAPSPKRISVPRSHAKHPTDTYPDASEVSIKKAIATFLPRFKDKPLFNRALCWCTDTADSTLLMCEHPKWKNFILATGDSGHSFKILPNVGKYVVELIEGRLPEEMAYQWRWRPGGDALKSRRAAPPKDLADMPGWKHD
B8: CFP-DH3 (protein)
chain: B7 chain with R64G
B9: CcFX-62D/63H/102K/106K (protein)
chain: MAPSRANTSVIVVGGGGTIGSSTALHLVRSGYTPSNITVLDTYPIPSAQSAGNDLNKIMGIDHRNKVDLQLSLEARQMWREDDLFKEYFHNTGRLDCAHGEKGLAKLRQAYQALLDANAGLEETTEWLDSEDEILKKMPLLDREQIKGWKAVYSQDGGWLAAAKAINAIGEYLRAQGVKFGFGGAGSFKQPLLAEGVCIGVETVDGTRYYADKVVLAAGAWSPVLVDLEDQCVSKAWVYAHIQLTPEEAAEYKNVPVVYNGDVGFFFEPDEHGVIKVCDEFPGFTRFKQHQPYGAKAPKRISVPRSAAKHPTDTYPDASEKSIRKAIATFLPKFTEKELFNRHLCWCTDTADAALLMCEHPEWKNFVLATGDSGHTFKLLPNIGKHVVELLEGTLAEDLAHAWRWRPGTGDALKSRRAAPAKDLADMPGWKHDDVVKSKL
B10: CcFX-62D/63H/102K/106K-64T (protein)
chain: B9 chain with R64T
B11: CcFX-62D/63H/102K/106K-64L (protein)
chain: B9 chain with R64L
B12: CFP-T7-H38-V (protein)
chain: MTSNRADTRVIVVGGGGTIGSSTALHLVRSGYAPANITVLDTFEIPSAQSAGHDLNKIMGIDHVNKVNLQMSLEARQMWKEDELFQPFFHNTGRMDCEHTPKGIEKLKKLYQKLHDAGAGLEKTHAWLDNEDEILSKMPLLQRDQIQGWKAIWSQDGGWLAAAKAINAIGQFLKERGVKFGFGGAGSFKQPLFDDEGTTCIGVETADGTKYYADKVVLAAGAWSPTLVDLEDQCCSKAWVYAHIQLTPEEAAEYKGVPVVYNGEFGFFFEPDEFGVIKVCDEFPGFSRFKEHQPYGAPSPKRISVPRSHAKHPTDTYPDASEVSIKKAIATFLPRFQDKELFNRALCWCTDTADSTLLMCEHPKWKNFILATGDSGHSFKILPNVGKYVVELIEGRLPEEMAYQWRWRPGGDALKSRRAAPPKDLADMPGWKHDPKL
B13: CFP-T7-H38-A (protein)
chain: B12 chain with V64A
B14: CFP-T7-H38-M (protein)
chain: B12 chain with V64M
B15: CFP-T7-H38-GF (protein)
chain: B12 chain with V64G, L110F
B16: CFP-T7-H38-T (protein)
chain: B12 chain with V64T
B17: CFP-T7-H38-GY (protein)
chain: B12 chain with V64G, L110Y
B18: CFP-T7-H38-S (protein)
chain: B12 chain with V64S
B19: CFP-T7-H38-G (protein)
chain: B12 chain with V64G
B20: CFP-T7-H38-L (protein)
chain: B12 chain with V64L
B21: CFP-T7-H37 (protein)
chain: B12 chain with V64R
B22: CFP-T7-H38-GH (protein)
chain: B12 chain with V64G, L110H
B23: CFP-T7-H38-I (protein)
chain: B12 chain with V64I
B24: CFP-T7-H38-GYS (protein)
chain: B12 chain with V64G, H99S, L110Y

The text below walks through data of patent US20180371429.

Positions count from the first letter of the chain named.

The series addresses T1, α-fructosyl-valyl-histidyl-leucyl-threon ….
Protein B1 yielded a Specific activity (mU/mg), 10 µM αF8P of 2 mU/mg.

The protein B2 registered a Specific activity (mU/mg), 10 µM αF8P of 2.2 mU/mg. B3 displayed a Specific activity (mU/mg), 10 µM αF8P of 0.3 mU/mg. The same measure, in the same setting: as for B4, the figure is 0.37 mU/mg; as for B5, 0.38 mU/mg. Still for that read-out and setting: to B6 belongs 0.42 mU/mg. Consider B7, for which the Specific activity (U/mg), 1 mM αF8P came to 2.8 U/mg. For B8, the Specific activity (U/mg), 1 mM αF8P is 4.9 U/mg and the “fold improvement of specific activity on αF8P against CFP-DH2” value is “by 1.51 to 1.75 times”.

The protein B9 returned a Specific activity (mU/mg), 10 µM αF8P of 1.3 mU/mg. Regarding B10, the Specific activity (mU/mg), 10 µM αF8P worked out at 1.5 mU/mg. In turn, B11 came in with a Specific activity (mU/mg), 10 µM αF8P of 2 mU/mg. Still for that read-out and setting: as for B12, the figure is 86 mU/mg. On to B13, for which the Specific activity (U/mg), 1 mM αF8P amounted to 3.26 U/mg. The protein B14 showed a Specific activity (mU/mg), 10 µM αF8P of 84.4 mU/mg. Same read-out and setting: to B15 belongs 145 mU/mg; to B16, 78.7 mU/mg. Still for that read-out and setting: as for B17, the figure is 174 mU/mg; as for B18, 89.7 mU/mg.

Take B19: the Specific activity (U/mg), 1 mM αF8P amounted to 6.33 U/mg; the Specific activity (mU/mg), 10 µM αF8P is 95.9 mU/mg; the “fold improvement of specific activity on αF8P against CFP-T7-H37” value is given as “by 1.51 to 1.75 times”. B20 had a Specific activity (mU/mg), 10 µM αF8P of 84.3 mU/mg.

B21 had a Specific activity (U/mg), 1 mM αF8P of 4.18 U/mg and a Specific activity (mU/mg), 10 µM αF8P of 44.4 mU/mg.

The protein B22 registered a Specific activity (mU/mg), 10 µM αF8P of 143 mU/mg.

In the case of B23, the Specific activity (mU/mg), 10 µM αF8P amounted to 78.7 mU/mg. Still for that read-out and setting: to B24 belongs 196 mU/mg.
